The results in this text go back to patent CN117624362A.

This assay concerns the target T1, 人CD20 (human) (UniProt P11836).
T1 sequence (looked up): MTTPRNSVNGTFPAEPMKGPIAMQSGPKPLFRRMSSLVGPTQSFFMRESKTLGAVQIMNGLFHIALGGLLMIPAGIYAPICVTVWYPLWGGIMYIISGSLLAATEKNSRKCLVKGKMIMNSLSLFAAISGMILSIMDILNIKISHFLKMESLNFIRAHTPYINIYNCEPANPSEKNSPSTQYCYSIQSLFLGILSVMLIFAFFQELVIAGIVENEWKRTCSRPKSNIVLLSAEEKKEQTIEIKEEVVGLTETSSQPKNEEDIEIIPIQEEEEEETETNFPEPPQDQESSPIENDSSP
The assay is described as follows: flow cytometry titration on lysed human blood cells, dilutions 1:100 to 1:96000 of 1 mg/mL antibody, goat anti-mouse IgG-PE detection.

In the case of “商品化鼠抗人CD20[2H7]抗体 (Biolegend) (antibody)”, the 亲和力(kd) is 195 (1mg/mL).

B1: 鼠抗人CD20[ZXCloneHCD20-07] (antibody, V domains shown)
VH: QVQLQQPGAELVKPGASVKMSCKASGYTFTSYNIHWVKQTPGQGLEWIGAIYPGNGDTSHNQKFKGKATLTADRSSSTAYMQFSSLTSEDSAVYYCARSRRYDGDWSFDVWGAGTTVTVSS
VL: QIVLTQSPAIMSASPGEKVTMTCSASSFITYMHWFQQKSGTSPKRWIYDTSKLASGVPARFSGSGSGTSYSLTISSMEAEDAATYYCQQWNSNPPTFGGGTKLEIKR
As for B1, the 亲和力(kd) was 190 (1mg/mL).
